Experimental data as given in US20190367592A1 (AC IMMUNE, published 2019).
Where no end group is shown, it is not given here.

Assays:
0N4R Tau = target: T1, 0N4R Tau (human, UniProt P10636-6 1-383); test: indirect or sandwich ELISA on recombinant human Tau isoforms
T1 construct: also called 0N-Tau

[1] = target: T2, full-length human Tau (flTau) (human, UniProt P10636-8 1-441); test: SPR, hybridoma Ab on anti-IgG chip, flTau analyte
T2 construct: range 1-441; bought (SignalChem); also called human Tau-441
Procedure, shortened: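 Unpurified antibodies from serum-free hybridoma supernatants were captured on an anti-IgG SPR chip (Biacore T-100), and flTau was flowed as analyte. KD was obtained from kinetic analysis with a 1:1 Langmuir fit.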

[2] = target: T3, recombinant human Tau monomer, 2N4R isoform (amino acids 2-441) (human, UniProt P10636-8 2-441); test: SPR, mIgG2a captured, Tau monomer analyte, 1:1 fit
T3 construct: range 2-441; N-terminal His-tag removed with TEV protease; also called monomeric Tau
Procedure, shortened: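 Antibodies in mIgG2a format captured on anti-mouse IgG surface at 1 μg/ml (30 or 45 s) or 0.1 μg/ml (70 or 150 s), 10 μl/min, in HBSP (10 mM HEPES pH7.4, 150 mM NaCl, 0.05% Tween 20). Tau monomer flowed as analyte; association 180-480 s, dissociation 300-600 s, 1:1 fit.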

[3] = target: T4, AVI-tag biotinylated oligomeric flTau (human, UniProt P10636-8 1-441, site-specific biotin on AVI-tag); test: capture ELISA, antibody on anti-IgG plate, biotinylated oligoTau titrated, O.D.
T4 construct: also called oligoTau; oligomeric Tau
Protocol: (§1) For the oligoTau and monoTau capture ELISAs, antibodies contained in serum-free sterile hybridoma supernatants were immobilized on an anti-IgG coated plate at 500-fold dilution, followed by the incubation of oligoTau or monoTau, both with site-specific biotinylation via an AVI-tag. The target incubations started at 5 μg/mL and then were diluted 8- or 16-fold. Streptavidin-HRP and ABTS substrate was used for signal quantitation in a plate reader (Tecan, Switzerland). Results are expressed as O.D.

Tau fragment 19-33 = target: T5, Tau fragment 19-33 (human, UniProt P10636-8 19-33, not fully specified); test: ELISA on Tau 15-mer peptides, O.D.; conditions of this panel not given
T5 construct: range 19-33
T5 peptide (looked up): GLGDRKDQGGYTMHQ

Tau fragment 28-42 = target: T6, Tau fragment 28-42 (human, UniProt P10636-8 28-42, not fully specified); test: as above
T6 construct: range 28-42
T6 peptide (looked up): GYTMHQDQEGDTDAG

Tau fragment 37-51 = target: T7, Tau fragment 37-51 (human, UniProt P10636-8 37-51); test: as above
T7 construct: range 37-51
T7 peptide (looked up): GDTDAGLKESPLQTP

Tau fragment 1-15 = target: T8, Tau fragment 1-15 (human, UniProt P10636-8 1-15); test: as above
T8 construct: range 1-15
T8 peptide (looked up): MAEPRQEFEVMEDHA

MAPT(10-24) = target: T9, MAPT(10-24) (human, also: biotinylated, site not given here); test: as above
T9 construct: also called Tau fragment 10-24
T9 peptide: VMEDHAGTYGLGDRK

[4] = target: T10, AVI-tag biotinylated monomeric flTau (human, UniProt P10636-8 1-441, site-specific biotin on AVI-tag); test: capture ELISA, antibody on anti-IgG plate, biotinylated monoTau titrated, O.D.
T10 construct: also called monoTau; monomeric Tau
Protocol: as §1

[5] = target: T3, recombinant human Tau monomer, 2N4R …; test: SPR, human Fab capture kit, Tau monomer analyte
Protocol: Affinity was assessed at 25° C. using a Biacore T200 instrument, the GE Biacore human FAb capture kit and a CM5 Series S chip. The hIgG were diluted to 0.5 μg/ml in 10 mM HEPES pH7.4, 150 mM NaCl, 0.05% Tween 20 (running buffer, HBSP) and captured at a flow rate of 10 μl/min for 180 seconds. Kinetic data was collected for Human Tau monomer injected at concentrations of 0, 0.4, 1.2, 3.7, 11, 11, 33 and 100 nM in HBSP, using a flow rate of 30 μl/min, a 300 second association phase and a 600 second dissociation phase. Between cycles the surface was regenerated using two sequential 60 second injections of 10 mM Glycine pH 2.1. Data was fit to a 1:1 binding model.

[6] = target: T2, full-length human Tau (flTau); test: indirect ELISA, flTau coated, hybridoma supernatant diluted, O.D.
Protocol: Coating was done overnight in phosphate-buffered saline (PBS) at 4° C. Plates were washed thoroughly with 0.05% Tween-20/PBS and then blocked with 1% bovine serum albumin (BSA) in 0.05% Tween-20/PBS for 1 hr at 37° C. The antibody contained in the hybridoma supernatant was then added at the indicated dilutions, and incubated for 2 hrs at 37° C. after which the plates were washed as described previously.
For the indirect ELISAs, an AP-conjugated anti-mouse IgG secondary antibody (Jackson ImmunoResearch Laboratories, United Kingdom) was added at 1/6000 dilution in 0.05% Tween-20/PBS for 2 hr at 37° C. After the final wash, plates were incubated with p-nitrophenyl phosphate disodium hexahydrate (pNPP; Sigma-Aldrich, Switzerland) phosphatase substrate solution, and read at 405 nm using an ELISA plate reader (Tecan, Switzerland). Results are expressed as optical densities (O.D.).

T1 sequence (P10636 other isoform, or with tags, fused parts or gaps limits assumed): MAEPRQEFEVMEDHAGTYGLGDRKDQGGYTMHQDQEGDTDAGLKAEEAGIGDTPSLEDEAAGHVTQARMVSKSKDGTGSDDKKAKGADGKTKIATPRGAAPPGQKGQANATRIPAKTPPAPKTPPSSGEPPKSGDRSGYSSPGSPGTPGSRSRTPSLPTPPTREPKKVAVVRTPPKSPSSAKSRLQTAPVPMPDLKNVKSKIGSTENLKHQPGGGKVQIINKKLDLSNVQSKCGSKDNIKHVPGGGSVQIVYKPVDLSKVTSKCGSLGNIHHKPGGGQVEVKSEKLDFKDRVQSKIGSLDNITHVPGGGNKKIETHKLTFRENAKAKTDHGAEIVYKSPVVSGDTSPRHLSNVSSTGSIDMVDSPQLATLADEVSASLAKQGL
T4 sequence (P10636 other isoform, or with tags, fused parts or gaps limits assumed): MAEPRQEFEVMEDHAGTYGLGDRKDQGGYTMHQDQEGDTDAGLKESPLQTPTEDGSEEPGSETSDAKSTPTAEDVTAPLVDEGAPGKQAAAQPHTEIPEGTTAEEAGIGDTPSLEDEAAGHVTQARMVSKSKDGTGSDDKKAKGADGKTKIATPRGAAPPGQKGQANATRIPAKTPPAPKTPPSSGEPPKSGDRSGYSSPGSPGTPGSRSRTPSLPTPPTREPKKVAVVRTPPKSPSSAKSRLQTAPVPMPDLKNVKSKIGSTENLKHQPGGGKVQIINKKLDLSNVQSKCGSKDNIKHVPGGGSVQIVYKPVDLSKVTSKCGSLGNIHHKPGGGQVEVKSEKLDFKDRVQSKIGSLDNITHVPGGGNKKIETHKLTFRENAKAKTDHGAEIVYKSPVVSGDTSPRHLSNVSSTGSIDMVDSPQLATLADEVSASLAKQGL
T3 sequence (P10636 other isoform, or with tags, fused parts or gaps limits assumed): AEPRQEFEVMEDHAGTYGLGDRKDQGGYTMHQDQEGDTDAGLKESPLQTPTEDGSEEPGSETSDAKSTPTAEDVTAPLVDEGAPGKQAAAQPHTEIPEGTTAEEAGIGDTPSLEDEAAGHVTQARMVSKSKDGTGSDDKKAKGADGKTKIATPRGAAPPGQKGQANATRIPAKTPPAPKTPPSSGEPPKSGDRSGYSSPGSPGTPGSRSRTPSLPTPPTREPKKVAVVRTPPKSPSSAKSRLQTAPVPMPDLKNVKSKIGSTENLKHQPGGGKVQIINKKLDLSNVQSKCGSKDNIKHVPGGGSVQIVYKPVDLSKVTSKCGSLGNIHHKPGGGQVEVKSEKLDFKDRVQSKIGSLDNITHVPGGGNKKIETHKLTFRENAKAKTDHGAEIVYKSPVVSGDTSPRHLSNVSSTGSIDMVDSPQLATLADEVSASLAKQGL

B1: 211G6-B6 (antibody, V domains shown)
VH: QVQLKESGPGLVAPSQSLSITCTVSGFSLTSYAISWVRQPPGKGLEWLGVIWTGGGTNYNSALKSRLSITKDNSKNQVFFRMNSLQTDDTARYYCARKKLYDYDGGYFFDYWGQGTTLTVSS
VL: DIVMSQSPSSLAMSVGEKVTMSCKSNQSLLYSSNQKNYLAWYQQKPGQSPKLLIYWASTRESGVPDRFTGSGSGTDFTLTISSVKAEDLAVYYCHQYYSYPWTFGGGTKLEIK
B1 was tested, and the binding result (0N4R Tau) was “no binding (tested: not given)” and the Kd [1] was 4.7 nM.

B2: 30D12-B5 (antibody, V domains shown)
VH: EVQLQQSGAELVKPGASVKLSCTTSGFNIKDTYMHWVKQRPEQGLEWIGGIDPANGNTKYDPKFQGKATITADTSSNTAYLQLSSLTSEDTAVYYCAHGNFVYWGQGTLVTVSA
VL: DVVMTQTPLSLSVTIGQPASISCKSSQSLLYSNGKTYLNWFQQRPGQAPKHLMYQVSKLDPGIPDRFSGSGSETDFTLKISRVEAEDLGVYYCLQGTYYPLTFGAGTNLELK
notes: hybridoma supernatant
With B2 the binding result (0N4R Tau) was “no binding (tested: not given)” and the Kd [1] was 2 nM.

B3: 77D1-D2 (antibody, V domains shown)
VH: EVQLQQSVAELVRPGASVTLSCTSSGFNIKNTYMHWVIQRPEQGLEWIGKIDPAIVNTKYAPKFQGKATITADTSSNTAYLQLSSLTSEDTGIYYCAEGALLYWGLGTSVTVSS
VL: DVVMTQTPLSLSVTIGQPASISCKSSQSLLHSNGKTYLNWLQQRPGQAPKLLMYLVSKVDPGIPDRFSGSGSETDFTLKISRVEAEDLGVYYCFQGTYYPHTFGGGTKLEIK
notes: hybridoma supernatant
With B3 the binding result (0N4R Tau) was “no binding (tested: not given)” and the Kd [1] was 0.5 nM.

B4: 55E7-F11 (antibody, mouse IgG2a, V domains shown)
VH: EVKLEESGGGLVQPGGSMKLSCVASGFTFSNYWMNWVRQSPEKGLEWVAQIRLKSDNYATHYAESVKGRFTISRDDSKSSVYLQMNNLRAEDTGIYYCAGYFYGGYFDVWGTGTTVTVSS
VL: ELVLTQSPTTMAASPGKKITITCSASSSISSNYLHWYQQKPGFSPKLLIYRTSNLASGVPARFSGSGSGTSYSLTIGTMEAEDVATYYCQQGSSLPFTFGSGTKLEIK
In the case of B4, the Kd [2] is reported as 171 nM, the koff [2] is reported as 0.04 s⁻¹ and the kon [2] is reported as 200000 M⁻¹ s⁻¹. B4: no binding (tested: not given) (0N4R Tau).

B5: 72E12-H9 (antibody, V domains shown)
VH: EVKLEESGGGLVQPGGSMKLSCVASGFTFSNYWMNWVRQSPEKGLEWVAQIRLKSDNYATHYAESVKGRFTISRDDSKSSVYLQMNNLRAEDTGIYYCAGYFYGGYFDVWGTGTTVTVSS
VL: ELVLTQSPTTMAASPGKKITITCSASSSISSNYLHWYQQKPGFSPKLLIYRTSNLASGVPARFSGSGSGTSYSLTIGTMEAEDVATYYCQQGSSLPFTFGSGTKLEIK
notes: hybridoma supernatant
For B5, the binding result (0N4R Tau) was “no binding (tested: not given)” and the Kd [1] was 2 nM.

B6: 19H6-F7 (antibody, mouse IgG2a, V domains shown)
VH: EVQLVESGGDLVKPGGSLKLSCAASGFTFSSYGMSWVRQTPDKRLEWVATISSGGTYTYYPDSVKGRFTISRDNAKNTLYLQMSSLKSEDTAMYYCAPSYDGAMDYWGQGTSVTVSS
VL: DVLMTQTPLSLPVSLGDQASISCRSSQSIVHSNGNTYLEWYLQKPGQSPKLLIYKVSNRFSGVPDRFSGSGSGTDFTLKISRVEAEDLGVYYCFQGSLVPWTFGGGTKLEIK
B6 was tested, and the “EC50 (read off the curve)” value [3] was roughly 0.2 µg/mL, the Kd [2] was 10 nM and the koff [2] was 0.002 s⁻¹. For the same binder, the kon [2] was 200000 M⁻¹ s⁻¹, the binding result (Tau fragment 19-33) was “no binding (tested: not given)” and the binding result (Tau fragment 28-42) was “no binding (tested: not given)”. B6: no binding (tested: not given) (Tau fragment 37-51); no binding (tested: not given) (Tau fragment 1-15); binds (MAPT(10-24)). For the same binder, the Kd [1] was 39 nM.

B7: 12A10-E8 (antibody, V domains shown)
VH: QIQLVQSGPELKKPGETVKISCKASGYTFTNYGMNWVKQAPGKGLKWMGWINMYTGEPTYGDDFKGRFVFSLETSVSTVYLQINNLKKEDTATFFCARGGRPDYWGQGTSVTVSS
VL: DVLMTQTPLSLPVSLGDQASISCRSSQSIVHSNGNTYLEWYLQKPGQSPKLLIYKVFNRFSGVPDRFSGSGSGTDFTLKINRVEAEDLGVYYCLQGSHVPYTFGGGTKLEIK
notes: hybridoma supernatant
For B7, the binding result (0N4R Tau) was “no binding (tested: not given)” and the Kd [1] was 0.8 nM.

B8: 3A4-H4 (antibody, mouse IgG2a, V domains shown)
VH: EVQLVESGGDLVKPGGSLKLSCAASGFTFSSYGMSWVRQTPDKRLEWVATISSGGTYTYYPDSVKGRFTISRDNAKNTLYLQMSSLKSEDTAMYFCATSYDGAMDYWGQGTSVTVSS
VL: DVLMTQTPLSLPVSLGDQASISCRSSQNIVHSNGNTYLEWYLQKPGQSPKLLIYKVSNRFSGVPDRFSGSGSGTDFTLKISRVEAEDLGVYYCFQGTLVPWTFGGGTKLEIK
B8 was tested, and the “EC50 (read off the curve)” value [3] was roughly 0.09 µg/mL, the Kd [2] was 12 nM and the koff [2] was 0.0003 s⁻¹. For the same binder, the kon [2] was 30000 M⁻¹ s⁻¹, the binding result (Tau fragment 19-33) was “no binding (tested: not given)” and the binding result (Tau fragment 28-42) was “no binding (tested: not given)”. The binding result (Tau fragment 37-51) was “no binding (tested: not given)”, the binding result (Tau fragment 1-15) was “no binding (tested: not given)” and the Kd [1] was 7.8 nM.

B9: 73H6-B8 (antibody, V domains shown)
VH: QVQLKESGPGLVAPSQSLSITCTISGFSLTSYGVHWVRQPPGKGLEWLVVIWSDGSTTYNSALKSRLSISKDNSKSQVFLKMNSLQTDDTAMYYCARQGGFITTAYYAMDYWGQGTSVTVSS
VL: DIVMSQSPSSLAVSAGEKVTMSCKSSQSLLNSRTRKNYLAWYQQKPGQSPKLLIYWASTRESGVPDRFTGSGSGTDFTLTISSVQAEDLAVYYCKQSYNLYTFGGGTKLEIK
notes: hybridoma supernatant
B9: binds [3]; binds [4].

B10: hu37D3-H9.v28.A4 hIgG4.S228P.YTE (antibody, V domains shown)
VH: EVQLVESGGGLVQPGGSLRLSCAASGLIFRSYGMSWVRQAPGKGLEWVATINSGGTYTYYPDSVKGRFTISRDNSKNTLYLQMNSLRAEDTAVYYCANSYSGAMDYWGQGTLVTVSS
VL: DDVLTQTPLSLPVTPGQPASISCRSSQSIVHSNGNTYLEWYLQKPGQSPQLLIYKVSNRFSGVPDRFSGSGSGTDFTLKISRVEAEDVGVYYCFQGSLVPWTFGQGTKVEIKR
notes: also called hu37D3.v28.A4 hIgG4-S228P.YTE
B10 showed a Kd [5] of 1.4 nM, a koff [5] of 0.0009 s⁻¹ and a kon [5] of 600000 M⁻¹ s⁻¹.

B11: 14F5-D9 (antibody, V domains shown)
VH: EVKLVESGGGLVQPGGSLRLSCATSGFTFSDFYMEWVRQSPGKRLEWIAASKNKANDYTTEYNASVKDRFFVSRDTSQSILYLQMNALRAEDTAIYYCARDALGTVFAYWGQGTLVTVSA
VL: DVVMTQTPLSLPVSLGDQASISCRSSQSLVHSNGNTYLHWYLQKPGQSPKLLIYKVFNRFSGVPDRFSGSGSGTDFTLKISRVEAEDLGVYFCSQSTLVPLTFGAGTKLELK
notes: hybridoma supernatant
B11: binds [3]; binds [4]; binds [6].
